B1: sp¦Q6NVY1¦HIBCH_HUMAN (protein, UniProt Q6NVY1 33-386, looked up)
3-hydroxyisobutyryl-CoA …: DAAEEVLLEKKGCTGVITLNRPKFLNALTLNMIRQIYPQLKKWEQDPETFLIIIKGAGGKAFCAGGDIRVISEAEKAKQKIAPVFFREEYMLNNAVGSCQKPYVALIHGITMGGGVGLSVHGQFRVATEKCLFAMPETAIGLFPDVGGGYFLPRLQGKLGYFLALTGFRLKGRDVYRAGIATHFVDSEKLAMLEEDLLALKSPSKENIASVLENYHTESKIDRDKSFILEEHMDKINSCFSANTVEEIIENLQQDGSSFALEQLKVINKMSPTSLKITLRQLMEGSSKTLQEVLTMEYRLSQACMRGHDFHEGVRAVLIDKDQSPKWKPADLKEVTEEDLNNHFKSLGSSDLKF
B2: sp¦Q9H2U2¦IPYR2_HUMAN (protein, UniProt Q9H2U2 33-334, looked up)
Inorganic pyrophosphatase 2, …: ALYHTEERGQPCSQNYRLFFKNVTGHYISPFHDIPLKVNSKEENGIPMKKARNDEYENLFNMIVEIPRWTNAKMEIATKEPMNPIKQYVKDGKLRYVANIFPYKGYIWNYGTLPQTWEDPHEKDKSTNCFGDNDPIDVCEIGSKILSCGEVIHVKILGILALIDEGETDWKLIAINANDPEASKFHDIDDVKKFKPGYLEATLNWFRLYKVPDGKPENQFAFNGEFKNKAFALEVIKSTHQCWKALLMKKCNGGAINCTNVQISDSPFRCTQEEARSLVESVSSSPNKESNEEEQVWHFLGK
B3: sp¦P13804¦ETFA_HUMAN (protein, UniProt P13804 20-333, looked up)
Electron transfer …: QSTLVIAEHANDSLAPITLNTITAATRLGGEVSCLVAGTKCDKVAQDLCKVAGIAKVLVAQHDVYKGLLPEELTPLILATQKQFNYTHICAGASAFGKNLLPRVAAKLEVAPISDIIAIKSPDTFVRTIYAGNALCTVKCDEKVKVFSVRGTSFDAAATSGGSASSEKASSTSPVEISEWLDQKLTKSDRPELTGAKVVVSGGRGLKSGENFKLLYDLADQLHAAVGASRAAVDAGFVPNDMQVGQTGKIVAPELYIAVGISGAIQHLAGMKDSKTIVAINKDPEAPIFQVADYGIVADLFKVVPEMTEILKKK
B4: sp¦Q9HAV0¦GBB4_HUMAN (protein, UniProt Q9HAV0 2-340, looked up)
Guanine nucleotide-binding …: SELEQLRQEAEQLRNQIQDARKACNDATLVQITSNMDSVGRIQMRTRRTLRGHLAKIYAMHWGYDSRLLVSASQDGKLIIWDSYTTNKMHAIPLRSSWVMTCAYAPSGNYVACGGLDNICSIYNLKTREGNVRVSRELPGHTGYLSCCRFLDDSQIVTSSGDTTCALWDIETAQQTTTFTGHSGDVMSLSLSPDMRTFVSGACDASSKLWDIRDGMCRQSFTGHVSDINAVSFFPNGYAFATGSDDATCRLFDLRADQELLLYSHDNIICGITSVAFSKSGRLLLAGYDDFNCNVWDTLKGDRAGVLAGHDNRVSCLGVTDDGMAVATGSWDSFLRIWN
B5: sp¦Q9NVP1¦DDX18_HUMAN (protein, UniProt Q9NVP1 1-670, looked up)
ATP-dependent RNA helicase …: MSHLPMKLLRKKIEKRNLKLRQRNLKFQGASNLTLSETQNGDVSEETMGSRKVKKSKQKPMNVGLSETQNGGMSQEAVGNIKVTKSPQKSTVLTNGEAAMQSSNSESKKKKKKKRKMVNDAEPDTKKAKTENKGKSEEESAETTKETENNVEKPDNDEDESEVPSLPLGLTGAFEDTSFASLCNLVNENTLKAIKEMGFTNMTEIQHKSIRPLLEGRDLLAAAKTGSGKTLAFLIPAVELIVKLRFMPRNGTGVLILSPTRELAMQTFGVLKELMTHHVHTYGLIMGGSNRSAEAQKLGNGINIIVATPGRLLDHMQNTPGFMYKNLQCLVIDEADRILDVGFEEELKQIIKLLPTRRQTMLFSATQTRKVEDLARISLKKEPLYVGVDDDKANATVDGLEQGYVVCPSEKRFLLLFTFLKKNRKKKLMVFFSSCMSVKYHYELLNYIDLPVLAIHGKQKQNKRTTTFFQFCNADSGTLLCTDVAARGLDIPEVDWIVQYDPPDDPKEYIHRVGRTARGLNGRGHALLILRPEELGFLRYLKQSKVPLSEFDFSWSKISDIQSQLEKLIEKNYFLHKSAQEAYKSYIRAYDSHSLKQIFNVNNLNLPQVALSFGFKVPPFVDLNVNSNEGKQKKRGGGGGFGYQKTKKVEKSKIFKHISKKSSDSRQFSH
B6: sp¦P00505¦AATM_HUMAN (protein, UniProt P00505 30-430, looked up)
Aspartate aminotransferase, …: SSWWTHVEMGPPDPILGVTEAFKRDTNSKKMNLGVGAYRDDNGKPYVLPSVRKAEAQIAAKNLDKEYLPIGGLAEFCKASAELALGENSEVLKSGRFVTVQTISGTGALRIGASFLQRFFKFSRDVFLPKPTWGNHTPIFRDAGMQLQGYRYYDPKTCGFDFTGAVEDISKIPEQSVLLLHACAHNPTGVDPRPEQWKEIATVVKKRNLFAFFDMAYQGFASGDGDKDAWAVRHFIEQGINVCLCQSYAKNMGLYGERVGAFTMVCKDADEAKRVESQLKILIRPMYSNPPLNGARIAAAILNTPDLRKQWLQEVKVMADRIIGMRTQLVSNLKKEGSTHNWQHITDQIGMFCFTGLKPEQVERLIKEFSIYMTKDGRISVAGVTSSNVGYLAHAIHQVTK
B7: sp¦P30044¦PRDX5_HUMAN (protein, UniProt P30044 53-214, looked up)
Peroxiredoxin-5, mitochondrial: MAPIKVGDAIPAVEVFEGEPGNKVNLAELFKGKKGVLFGVPGAFTPGCSKTHLPGFVEQAEALKAKGVQVVACLSVNDAFVTGEWGRAHKAEGKVRLLADPTGAFGKETDLLLDDSLVSIFGNRRLKRFSMVVQDGIVKALNVEPDGTGLTCSLAPNIISQL
B8: sp¦P04844¦RPN2_HUMAN (protein, UniProt P04844 23-631, looked up)
Dolichyl-diphosphooligosacchar …: LTPTHYLTKHDVERLKASLDRPFTNLESAFYSIVGLSSLGAQVPDAKKACTYIRSNLDPSNVDSLFYAAQASQALSGCEISISNETKDLLLAAVSEDSSVTQIYHAVAALSGFGLPLASQEALSALTARLSKEETVLATVQALQTASHLSQQADLRSIVEEIEDLVARLDELGGVYLQFEEGLETTALFVAATYKLMDHVGTEPSIKEDQVIQLMNAIFSKKNFESLSEAFSVASAAAVLSHNRYHVPVVVVPEGSASDTHEQAILRLQVTNVLSQPLTQATVKLEHAKSVASRATVLQKTSFTPVGDVFELNFMNVKFSSGYYDFLVEVEGDNRYIANTVELRVKISTEVGITNVDLSTVDKDQSIAPKTTRVTYPAKAKGTFIADSHQNFALFFQLVDVNTGAELTPHQTFVRLHNQKTGQEVVFVAEPDNKNVYKFELDTSERKIEFDSASGTYTLYLIIGDATLKNPILWNVADVVIKFPEEEAPSTVLSQNLFTPKQEIQHLFREPEKRPPTVVSNTFTALILSPLLLLFALWIRIGANVSNFTFAPSTIIFHLGHAAMLGLMYVYWTQLNMFQTLKYLAILGSVTFLAGNRMLAQQAVKRTAH
B9: sp¦O43390¦HNRPR_HUMAN (protein, UniProt O43390 2-633, looked up)
Heterogeneous nuclear …: ANQVNGNAVQLKEEEEPMDTSSVTHTEHYKTLIEAGLPQKVAERLDEIFQTGLVAYVDLDERAIDALREFNEEGALSVLQQFKESDLSHVQNKSAFLCGVMKTYRQREKQGSKVQESTKGPDEAKIKALLERTGYTLDVTTGQRKYGGPPPDSVYSGVQPGIGTEVFVGKIPRDLYEDELVPLFEKAGPIWDLRLMMDPLSGQNRGYAFITFCGKEAAQEAVKLCDSYEIRPGKHLGVCISVANNRLFVGSIPKNKTKENILEEFSKVTEGLVDVILYHQPDDKKKNRGFCFLEYEDHKSAAQARRRLMSGKVKVWGNVVTVEWADPVEEPDPEVMAKVKVLFVRNLATTVTEEILEKSFSEFGKLERVKKLKDYAFVHFEDRGAAVKAMDEMNGKEIEGEEIEIVLAKPPDKKRKERQAARQASRSTAYEDYYYHPPPRMPPPIRGRGRGGGRGGYGYPPDYYGYEDYYDDYYGYDYHDYRGGYEDPYYGYDDGYAVRGRGGGRGGRGAPPPPRGRGAPPPRGRAGYSQRGAPLGPPRGSRGGRGGPAQQQRGRGSRGSRGNRGGNVGGKRKADGYNQPDSKRRQTNNQQNWGSQPIAQQPLQQGGDYSGNYGYNNDNQEFYQDTYGQQWK
B10: sp¦P22102¦PUR2_HUMAN (protein, UniProt P22102 2-1010, looked up)
Trifunctional purine …: AARVLIIGSGGREHTLAWKLAQSHHVKQVLVAPGNAGTACSEKISNTAISISDHTALAQFCKEKKIEFVVVGPEAPLAAGIVGNLRSAGVQCFGPTAEAAQLESSKRFAKEFMDRHGIPTAQWKAFTKPEEACSFILSADFPALVVKASGLAAGKGVIVAKSKEEACKAVQEIMQEKAFGAAGETIVIEELLDGEEVSCLCFTDGKTVAPMPPAQDHKRLLEGDGGPNTGGMGAYCPAPQVSNDLLLKIKDTVLQRTVDGMQQEGTPYTGILYAGIMLTKNGPKVLEFNCRFGDPECQVILPLLKSDLYEVIQSTLDGLLCTSLPVWLENHTALTVVMASKGYPGDYTKGVEITGFPEAQALGLEVFHAGTALKNGKVVTHGGRVLAVTAIRENLISALEEAKKGLAAIKFEGAIYRKDVGFRAIAFLQQPRSLTYKESGVDIAAGNMLVKKIQPLAKATSRSGCKVDLGGFAGLFDLKAAGFKDPLLASGTDGVGTKLKIAQLCNKHDTIGQDLVAMCVNDILAQGAEPLFFLDYFSCGKLDLSVTEAVVAGIAKACGKAGCALLGGETAEMPDMYPPGEYDLAGFAVGAMERDQKLPHLERITEGDVVVGIASSGLHSNGFSLVRKIVAKSSLQYSSPAPDGCGDQTLGDLLLTPTRIYSHSLLPVLRSGHVKAFAHITGGGLLENIPRVLPEKLGVDLDAQTWRIPRVFSWLQQEGHLSEEEMARTFNCGVGAVLVVSKEQTEQILRDIQQHKEEAWVIGSVVARAEGSPRVKVKNLIESMQINGSVLKNGSLTNHFSFEKKKARVAVLISGTGSNLQALIDSTREPNSSAQIDIVISNKAAVAGLDKAERAGIPTRVINHKLYKNRVEFDSAIDLVLEEFSIDIVCLAGFMRILSGPFVQKWNGKMLNIHPSLLPSFKGSNAHEQALETGVTVTGCTVHFVAEDVDAGQIILQEAVPVKRGDTVATLSERVKLAEHKIFPAALQLVASGTVQLGENGKICWVKEE

System: human HL60 cells
Test: SWATH-MS proteomics, differential protein representation, akirin2 KO vs WT HL60 cells
Format: cell-based
Details: SWATH-MS, akirin2 KO vs WT HL60 cells; sheet "Under-represented in KO"
Procedure, shortened: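 Proteins from WT and akirin2 KO HL60 cells (n=3 biological replicates) were FASP trypsin-digested and analyzed by SWATH-MS DIA with variable windows against an IDA-derived spectral library. Identifications at 1% global FDR; quantities normalized to total area sums of all detected proteins.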

Molecule	Fold Change	Log (Fold Change)
B1	0.7678	-0.1147
B2	0.76	-0.1192
B3	0.7634	-0.1173
B4	0.7672	-0.1151
B5	0.7616	-0.1182
B6	0.7669	-0.1152
B7	0.764	-0.1169
B8	0.7588	-0.1199
B9	0.7565	-0.1212
B10	0.7577	-0.1205

Reference: article PMC8298264, “Function of cofactor Akirin2 in the regulation of gene expression in model human neutrophil-like HL60 cells” (Bioscience Reports, 2021)
